Assay results taken from PMC8665133.
“And” between values parts separate entries of the source, which are not always exact repeats. Equal values may be shown once. Read-outs that look alike come from different tables or passages of the source.

Legend:
[1] = biological target: T1, Transmembrane domain peptide of AM2 (TM-AM2), wild type (influenza A virus (strain not stated)); assay: native MS
[2] = biological target: T1, Transmembrane domain peptide of AM2 …; assay: native MS; remark: listed apart in the source

SDPLVVAASIIGILHLILWIL (modifications not checked) [Transmembrane domain peptide of AM2 (TM-AM2), wild type]
stoichiometry N [1]: 2 and 4
stoichiometry N [2]: 6
